± gives the standard deviation of the averaged measurements.
B1: library; a variant is named by its letters at N, in order (parent)
chain: GCUGUCACCGGUGCUUGGUACGUUAUAUUCAGCCGGUCUGAUGAGUCUNNNNNNAGACGAAACAGC

Tests used:
(6R,S)-folinic acid [1] = variants of: B1; experiment: FACS-Seq fitted mean relative fluorescence mCherry/BFP without ligand (log10 relative fluorescence); HEK293T overexpressing SLC46A1; higher = higher reporter protein expression; settings: without (6R,S)-folinic acid; ligand present: no
Summary of the method: (§1)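 Enriched HEK293T cells carrying, by lentivirus, an mCherry reporter with the ribozyme switch and an EF1α-BFP marker spent 48 h with or without ligand and were sorted into 6 bins by mCherry/BFP. MiSeq sequencing of PCR-amplified bin genomic DNA gave bin counts. Fluorescence was calculated as the fitted normal mean of those counts. Counts were binned on log10(mCherry/BFP), and means were scaled to five spiked-in control ribozymes.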

(6R,S)-folinic acid [2] = variants of: B1; experiment: normalized RNA/DNA level without ligand (relative to sTRSVctl = 100) (log10 (% of sTRSVctl)); HEK293T overexpressing SLC46A1; higher = less ribozyme self-cleavage, higher mRNA level; settings: without (6R,S)-folinic acid; ligand present: no
Procedure: (§2)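 Hammerhead (sTRSV) ribozyme switch libraries with a ligand aptamer grafted on stem I and a randomized N4-6 loop II, cloned into the 3' UTR of mCherry and transiently transfected into HEK293T cells; RNA-Seq 72 h post transfection with ligand added 1 h before transfection; RNA read count / plasmid DNA read count normalized to the non-cleaving sTRSVctl (x100), log10; sequences with >100 DNA reads. FACS-Seq: lentiviral library sorted into 6 bins after 48 h ligand, log-normal fit mean of mCherry/BFP scaled to controls. Printed sequences are partial switch sequences.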

(6R,S)-folinic acid [3] = variants of: B1; experiment: FACS-Seq fitted mean relative fluorescence mCherry/BFP with ligand (log10 relative fluorescence); HEK293T overexpressing SLC46A1; ligand concentration (+) FACS-Seq: 6 mM; higher = higher reporter protein expression; settings: with (6R,S)-folinic acid; ligand present: yes
Summary of the method: as §1

(6R,S)-folinic acid [4] = variants of: B1; experiment: normalized RNA/DNA level with ligand (relative to sTRSVctl = 100) (log10 (% of sTRSVctl)); HEK293T overexpressing SLC46A1; ligand concentration (+) RNA-Seq: 6 mM; higher = less ribozyme self-cleavage, higher mRNA level; settings: with (6R,S)-folinic acid; ligand present: yes
Procedure: as §2

| Variant | FACS-Seq fitted mean (log10) ((6R,S)-folinic acid [1]) | normalized RNA/DNA level without ligand (log10) ((6R,S)-folinic acid [2]) | FACS-Seq fitted mean (log10) ((6R,S)-folinic acid [3]) | normalized RNA/DNA level with ligand (log10) ((6R,S)-folinic acid [4]) |
| --- | --- | --- | --- | --- |
| GCUAAU | 0.513 ± 0.029 | 1.986 ± 0.0026 | 0.516 ± 0.027 | 2.02 ± 0.022 |
| AGAGCU | 0.596 ± 0.05 | 2.019 ± 0.006 | 0.275 ± 0.32 | 2.01 ± 0.029 |
| UCUUAG | 0.183 ± 0.18 | 1.86 ± 0.053 | -0.141 ± 0.14 | 2.02 ± 0.019 |
| UGAACG | 0.174 ± 0.17 | 1.83 ± 0.021 | 0.296 ± 0.022 | 2 ± 0.035 |
| UGAACU | 0.534 ± 0.077 | 1.988 ± 0.016 | 0.35 ± 0.14 | 2 ± 0.032 |
| UGAGAU | 0.457 ± 0.23 | 1.83 ± 0.043 | 0.572 ± 0.015 | 1.98 ± 0.041 |
| UGAGAG | 0.384 ± 0.054 | 1.689 ± 0.012 | 0.526 ± 0.022 | 1.92 ± 0.02 |
| UGAGAA | 0.5 ± 0.038 | 1.917 ± 0.011 | 0.533 ± 0.26 | 1.98 ± 0.026 |
| CGAAUA | 0.314 ± 0.065 | 1.954 ± 0.0097 | 0.45 ± 0.14 | 1.978 ± 0.018 |
| UGAGCG | 0.157 ± 0.15 | 1.736 ± 0.012 | 0.218 ± 0.39 | 1.98 ± 0.024 |
| UGAGCU | 0.387 ± 0.081 | 2 ± 0.013 | 0.479 ± 0.087 | 2.019 ± 0.012 |
| GGAAAA | 0.526 ± 0.051 | 1.983 ± 0.011 | 0.455 ± 0.15 | 2.04 ± 0.041 |
| GGAAAC | 0.359 ± 0.026 | 2.021 ± 0.0084 | 0.243 ± 0.22 | 2.0107 ± 0.00078 |
| GGAAAG | 0.253 ± 0.061 | 1.955 ± 0.0027 | 0.123 ± 0.011 | 2.02 ± 0.041 |
| ACUUGG | 0.457 ± 0.11 | 1.898 ± 0.0091 | 0.649 ± 0.022 | 2 ± 0.049 |
| UGAUAC | 0.272 ± 0.049 | 1.984 ± 0.019 | 0.128 ± 0.094 | 2 ± 0.044 |
| UGAUAA | 0.48 ± 0.24 | 1.926 ± 0.019 | 0.632 ± 0.35 | 2.004 ± 0.017 |
| CCUUUA | 0.459 ± 0.027 | 2.019 ± 0.018 | 0.136 ± 0.057 | 2.06 ± 0.053 |
| CGAAAA | 0.189 ± 0.032 | 1.955 ± 0.014 | 0.493 ± 0.17 | 1.98 ± 0.022 |
| CGAAAG | -0.0838 ± 0.12 | 1.9719 ± 0.00015 | 0.0563 ± 0.36 | 1.98 ± 0.027 |
| AGACAG | 0.659 ± 0.017 | 1.941 ± 0.0083 | 0.854 ± 0.36 | 2.01 ± 0.026 |
| GGAGUA | 0.117 ± 0.042 | 1.9805 ± 0.0005 | 0.0493 ± 0.22 | 2.03 ± 0.029 |
| GCUGUU | 0.356 ± 0.02 | 2.043 ± 0.0085 | 0.145 ± 0.17 | 2.04 ± 0.042 |
| ACGGCA | 0.0556 ± 0.13 | 2.02 ± 0.026 | 0.139 ± 0.39 | 2.04 ± 0.029 |

| Variant | FACS-Seq fitted mean (log10) ((6R,S)-folinic acid [1]) | normalized RNA/DNA level without ligand (log10) ((6R,S)-folinic acid [2]) | FACS-Seq fitted mean (log10) ((6R,S)-folinic acid [3]) | normalized RNA/DNA level with ligand (log10) ((6R,S)-folinic acid [4]) |
| --- | --- | --- | --- | --- |
| UCGGUU | 0.629 ± 0.068 | 2.033 ± 0.0021 | 0.695 ± 0.2 | 2.06 ± 0.023 |
| UCGGUG | -0.084 ± 0.14 | 1.817 ± 0.0011 | 0.096 ± 0.055 | 2 ± 0.03 |
| CCGGUU | 0.218 ± 0.017 | 2.038 ± 0.016 | -0.22 ± 0.1 | 2.01 ± 0.018 |
| UGACCA | 0.061 ± 0.12 | 2.042 ± 0.0098 | -0.0235 ± 0.23 | 2.05 ± 0.039 |
| GGAGGC | -0.315 ± 0.075 | 1.936 ± 0.0065 | -0.531 ± 0.17 | 2.0118 ± 0.0015 |
| GGAGGU | 0.445 ± 0.085 | 2.02 ± 0.033 | 0.592 ± 0.05 | 2.05 ± 0.07 |
| GGACAA | 0.352 ± 0.14 | 1.98 ± 0.0036 | 0.748 ± 0.25 | 1.99 ± 0.02 |
| CCUGCU | -0.139 ± 0.054 | 2.06 ± 0.013 | -0.135 ± 0.0061 | 2.08 ± 0.04 |
| CCUCCA | 0.578 ± 0.057 | 2.02 ± 0.031 | 0.469 ± 0.016 | 2.04 ± 0.027 |
| GGAUAA | 0.686 ± 0.051 | 1.9974 ± 0.00055 | 0.655 ± 0.074 | 2.03 ± 0.026 |
| GGACGA | 0.242 ± 0.039 | 2.022 ± 0.011 | 0.493 ± 0.027 | 2.042 ± 0.011 |
| GGACGU | 0.583 ± 0.13 | 1.955 ± 0.015 | 0.529 ± 0.32 | 1.95 ± 0.024 |
| ACUGUG | 0.5433 ± 0.0045 | 1.853 ± 0.017 | 0.593 ± 0.12 | 2 ± 0.022 |
| CCUUAU | 0.278 ± 0.013 | 2.023 ± 0.0064 | 0.394 ± 0.22 | 2.05 ± 0.022 |
| ACUGAG | 0.198 ± 0.044 | 1.7978 ± 0.0006 | 0.446 ± 0.082 | 2 ± 0.023 |
| ACUGAA | 0.265 ± 0.035 | 1.953 ± 0.0034 | 0.375 ± 0.18 | 1.981 ± 0.0063 |
| GCGUAC | 0.258 ± 0.3 | 1.974 ± 0.0093 | 0.514 ± 0.11 | 2.02 ± 0.022 |
| GCGUAA | 0.297 ± 0.07 | 1.991 ± 0.014 | 0.2 ± 0.11 | 2.04 ± 0.046 |
| GCGUAG | 0.314 ± 0.07 | 1.962 ± 0.0022 | 0.372 ± 0.13 | 2.05 ± 0.022 |
| GCUGCC | 0.382 ± 0.084 | 2.08 ± 0.0024 | 0.484 ± 0.32 | 2.042 ± 0.0033 |
| GGAGAA | 0.29 ± 0.13 | 1.961 ± 0.013 | 0.201 ± 0.0069 | 2.01 ± 0.022 |
| GGAGAU | 0.0885 ± 0.2 | 1.959 ± 0.0067 | -0.253 ± 0.085 | 1.99 ± 0.049 |
| GGAGAC | 0.571 ± 0.081 | 2.0007 ± 0.00018 | 0.512 ± 0.3 | 2.009 ± 0.0055 |
| GCUUAC | 0.583 ± 0.13 | 2.02 ± 0.026 | 0.554 ± 0.32 | 2.01 ± 0.052 |

| Variant | FACS-Seq fitted mean (log10) ((6R,S)-folinic acid [1]) | normalized RNA/DNA level without ligand (log10) ((6R,S)-folinic acid [2]) | FACS-Seq fitted mean (log10) ((6R,S)-folinic acid [3]) | normalized RNA/DNA level with ligand (log10) ((6R,S)-folinic acid [4]) |
| --- | --- | --- | --- | --- |
| GCUUAA | 0.522 ± 0.21 | 1.9846 ± 0.00062 | 0.5605 ± 0.0027 | 2.01 ± 0.023 |
| ACGGGA | 0.247 ± 0.026 | 1.941 ± 0.0036 | 0.471 ± 0.17 | 2.01 ± 0.038 |
| GGAAUC | -0.317 ± 0.23 | 2.055 ± 0.0066 | -0.244 ± 0.51 | 2.05 ± 0.023 |
| GGAAUG | 0.589 ± 0.011 | 1.973 ± 0.0085 | 0.668 ± 0.1 | 2.03 ± 0.029 |
| GGAAUU | 0.362 ± 0.1 | 2.046 ± 0.0046 | 0.236 ± 0.27 | 2.061 ± 0.016 |
| AGAUAA | 0.0208 ± 0.12 | 1.96 ± 0.006 | 0.14 ± 0.2 | 1.981 ± 0.012 |
| GCUAUA | 0.337 ± 0.086 | 1.985 ± 0.014 | 0.51 ± 0.19 | 2.019 ± 0.0034 |
| GCGCUA | 0.652 ± 0.016 | 2.067 ± 0.018 | 0.697 ± 0.34 | 2.05 ± 0.021 |
| ACUAAG | 0.437 ± 0.1 | 1.924 ± 0.018 | 0.751 ± 0.14 | 2 ± 0.037 |
| ACUAAA | 0.538 ± 0.18 | 1.9903 ± 0.0016 | 0.483 ± 0.097 | 2.022 ± 0.018 |
| ACUAAC | 0.18 ± 0.0049 | 2 ± 0.017 | 0.412 ± 0.046 | 2.01 ± 0.045 |
| CGAGUU | 0.1373 ± 0.00078 | 1.997 ± 0.012 | 0.394 ± 0.014 | 2 ± 0.031 |
| CGAGUG | 0.389 ± 0.14 | 1.964 ± 0.0042 | 0.341 ± 0.17 | 2.01 ± 0.032 |
| UGACAG | 0.327 ± 0.16 | 1.82 ± 0.022 | 0.34 ± 0.028 | 1.971 ± 0.0094 |
| UGACAA | -0.327 ± 0.12 | 1.952 ± 0.0062 | -0.72 ± 0.24 | 2.024 ± 0.018 |
| CCUAAG | 0.536 ± 0.044 | 1.9074 ± 0.0005 | 0.332 ± 0.0073 | 2.002 ± 0.018 |
| CCUAAU | 0.239 ± 0.0063 | 2.041 ± 0.011 | 0.0269 ± 0.022 | 2.07 ± 0.067 |
| GCGGAG | 0.2 ± 0.093 | 1.89 ± 0.022 | 0.18 ± 0.029 | 2.01 ± 0.051 |
| UCUCGA | 0.597 ± 0.079 | 2.071 ± 0.012 | 0.413 ± 0.029 | 2.03 ± 0.021 |
| UCUCGU | 0.148 ± 0.028 | 1.9916 ± 0.0016 | -0.0695 ± 0.1 | 2.012 ± 0.013 |
| UGAAUG | 0.0422 ± 0.017 | 1.758 ± 0.0067 | 0.2668 ± 0.0023 | 1.98 ± 0.021 |
| GCUUUA | 0.213 ± 0.02 | 1.99 ± 0.026 | 0.0416 ± 0.19 | 1.98 ± 0.05 |
| CCUACA | -0.221 ± 0.03 | 2.02 ± 0.044 | -0.392 ± 0.29 | 2.04 ± 0.043 |

From the supplement of paper PMC6757056
